Consider one molecule from patent publication US20240327510A1, “DRUG FOR PREVENTING, ALLEVIATING OR TREATING MUCOSAL ADHESION AND USE THEREOF” (SHANGHAI SYNVIDA BIOTECHNOLOGY CO. LTD., priority 2021, published 2024).

Assay [1] relates to humanized Pear1 mice. Briefly: Peritoneal adhesion model, indicators related to adhesion (immunohistochemistry or RT-PCR). The assay is classed as in vivo. The following applies: versus control group. The source says: (§1) The model was made in humanized mice within 3 cm from the caecums of vermiform in peritoneal cavity, following the methods in the literature (Zhiliang Zhang, et al., Characteristics of genesis and development of peritoneal adhesion by different causes: experiment with rats, Chinese Journal of Medicine, 2005). The mice were divided into 3 groups. groups, with 20 mice in each group: A, control group with normal saline; B, prophylactic intraperitoneal injection of anti-human Pear1 monoclonal antibody (including LF2 or hLF105 antibody) 0.5 mg/kg, once a week; C, prophylactic intraperitoneal injection of anti-human Pear1 monoclonal antibody 1 mg/kg, once a week. After the mice were euthanized at 2 time points of 2 weeks and 4 weeks, an inverted “U”-shaped incision was selected to enter the abdomen, avoiding the original surgical incision. […] And the degree of adhesion in the peritoneal adhesion model was evaluated.
(§2) For fibroblast-specific Pear1 knockout mice, a peritoneal adhesion model was used to form a sham operation on the mice. The model preparation and animal grouping were as described above.
Immunohistochemistry or RT-PCR was used to measure some indicators related to adhesion formation to reflect the severity of adhesion, such as: fibrinogen (FIB), α-smooth actin (α-SMA), MMPs/TIMPs, transforming growth factor (TGF-β1), vascular endothelial growth factor (VEGF).

In assay [2] the test system is subcutaneous mucosal fibroblasts. Briefly: TGFβ activated mucosal fibroblasts treated with antibody: hydroxyproline in supernatant and QPCR of Col7a1, ACTA2. To be noted: 1 μg/mL antibody, 10 ng/mL TGFβ, 48 hours; versus control group. The format is cell-based, humanized Pear1 mice. The protocol: After the treatment of starvation in cultured mucosal or subcutaneous derived fibroblasts for 12 hours, 1 μg/mL anti-human Pear1 monoclonal antibody (including LF2 antibody or hLF105 antibody) was added separately to treat the cells. After 30 minutes, 10 ng/mL TGFβ was added to treat the cells for 48 hours, then the cell supernatant was collected. The content of hydroxyproline was detected using the hydroxyproline detection kit of Nanjing Jiancheng Biology Co., Ltd. according to the instructions.
Mucosal fibroblasts in Method 5 were collected. Total mRNA was extracted by Trizol method (Invitrogen, Carlsbad, CA) according to standard protocols. Complementary DNA was synthesized using reverse transcriptase (Takara). ABI7000 Real-time PCR instrument (Life Technologies) was used to detect gene expression and the PCR primer sequences are shown in Table 5. The 18sRNA gene was used as an internal reference.
To further investigate the role of targeting Pear1 in inhibiting mucosal fibroblast activation, subcutaneous mucosal fibroblasts were isolated from humanized Pear1 mice and cultured in vitro. TGFβ activated fibroblasts were treated with anti-human Pear1 monoclonal antibodies (including LF2 or hLF105) for 48 hours, and the supernatants were collected to detect the content of hydroxyproline. The cells were collected for QPCR to detect the expression levels of extracellular matrix proteins such as collagen 7a1 (Col 7a1) and smooth muscle actin a2 (ACTA2) to characterize fibroblast activation and collagen synthesis.

In assay [3] the test system is humanized Pear1 mice. Description: Peritoneal adhesion model, determination of hydroxyproline in tissues. The format is in vivo. The following applies: versus control group.
From the text: as §1, §2
The formation of tissue adhesion depends on the synthesis of collagen and hydroxyproline is the precursor of collagen synthesis. […]

For assay [4], the system named is humanized Pear1 mice. Briefly: Peritoneal adhesion model, BhatiaDS score. The assay is classed as in vivo. On the set-up: key to BhatiaDS score: grade 0: no adhesion; grade I: adhesive area of the area treated in the caecums of vermiform/total area of the treated area<50%, easy for blunt separation; grade II: above-mentioned area ratio≥50%, easy for blunt dissection; Grade III: Regardless of the size of the adhesive area, as long as the adhesion is difficult to separate, blunt separation can still be performed, but the intestinal wall is obviously damaged after separation; Grade IV: Regardless of the size of the adhesive area, as long as the adhesion is firm and can no longer be bluntly separated, required sharp separation. The text has this:
The model was made in humanized mice within 3 cm from the caecums of vermiform in peritoneal cavity, following the methods in the literature (Zhiliang Zhang, et al., Characteristics of genesis and development of peritoneal adhesion by different causes: experiment with rats, Chinese Journal of Medicine, 2005). The mice were divided into 3 groups. groups, with 20 mice in each group: A, control group with normal saline; B, prophylactic intraperitoneal injection of anti-human Pear1 monoclonal antibody (including LF2 or hLF105 antibody) 0.5 mg/kg, once a week; C, prophylactic intraperitoneal injection of anti-human Pear1 monoclonal antibody 1 mg/kg, once a week. After the mice were euthanized at 2 time points of 2 weeks and 4 weeks, an inverted “U”-shaped incision was selected to enter the abdomen, avoiding the original surgical incision. […] And the degree of adhesion in the peritoneal adhesion model was evaluated. […]
According to the scoring standard of BhatiaDS, grade 0: no adhesion; grade I: adhesive area of the area treated in the caecums of vermiform/total area of the treated area<50%, easy for blunt separation; grade II: above-mentioned area ratio≥50%, easy for blunt dissection; Grade III: Regardless of the size of the adhesive area, as long as the adhesion is difficult to separate, blunt separation can still be performed, but the intestinal wall is obviously damaged after separation; Grade IV: Regardless of the size of the adhesive area, as long as the adhesion is firm and can no longer be bluntly separated, required sharp separation. Each mouse was scored by 3 people respectively, and the average value was taken as the score of adhesion in this sample.

Assay [5] concerns humanized Pear1 mice. Briefly: Subcutaneous mucosal adhesion model, HE and Masson staining at wounded site. The assay is classed as in vivo. To be noted: 5 micrograms at the wounded site every 7 days; 14th day; versus control group. The source says: Mice were anesthetized by intraperitoneal injection of pentobarbital sodium. The hair is depilated and sterilized, and the skin is excised. A thin layer of bonding agent was applied to one side of the silicone plate to fix the wound concentrically with a clamping board. Each clamping board was sutured at regular intervals with eight stitches to secure it to the intact tissue around the wound, preventing contraction of the wound edges. Sterile dressings were cut into circular shapes and attached to the silicone board for protecting the wound, preventing the animals from scratching or chewing. The anti-human Pear1 monoclonal antibody was […].
Mice were anesthetized using isoflurane, maintaining a flow of 2% isoflurane. The sterile dressings on the silicone board were peeled off (or not peeled off). Pictures were taken at the wounded sites next to the fixed position and scale bar. If necessary, sterile dressings can be reapplied. Image J was used to process the photos. The wounded area can be calculated according to the circled area by the scale.
[…] were fixed in 4% paraformaldehyde for 48 hours, after paraffin embedding, a semi-automatic rotary slicing machine (Leica; rm2235 and cm1950) was used for slicing, dewaxing is carried out at room temperature, gradient ethanol is used for rehydration, HE and Masson staining were then performed.
Subsequently, in order to detect the role of targeting Pear1 in inhibiting adhesion formation in vivo, the inventors constructed an adhesion model in humanized Pear1 mice, and at the same time instilled anti-human Pear1 monoclonal antibodies (including LF2 or hLF105) each at a dose of 5 micrograms at the wounded site, with once administration every 7 days. On the 14th day, the subcutaneous mucosal tissue at the wounded site was removed, stained with HE and Masson, and photographed under a microscope. The thickness of the subcutaneous mucosa and skin and the area of collagen were counted by Image J software for indicating the formation of adhesions.

B1: hLF105: humanized anti-human Pear1 antibody; VH SEQ ID NO: 8, VL SEQ ID NO: 22 (antibody, V domains shown)
VH: QVQLVQSGAEVKKPGASVKVSCKASGYTFTGYPMNWVRQAPGKRLEWMGVINPYNGGTSYNQKFKGRATLTVDTSASTAYMELSSLRSEDTAVYYCARGGVRPFAYWGQGTLVTVSS
VL: DIQMTQSPSSLSASVGDRVTITCKASEDIYNRLAWYQQKPGKAPKLLISGATSLETGVPSRFSGSGSGNDFTLTISSLQPEDFATYYCQQYWSTPTFGQGTKLEIK
With B1, in the assay on humanized Pear1 mice [1], the “indicators related to adhesion (FIB, α-SMA, MMPs/TIMPs, TGF-β1, VEGF)” value is listed as “significantly lower”. Also, in assay [2], the “ability to synthesize extracellular matrix” value is reported as “inhibited” and the activation of fibroblasts result is “inhibited”. Besides, the “hydroxyproline content in tissues” value in the assay on humanized Pear1 mice [3] is given as “significantly lower”. In the assay with humanized Pear1 mice [4] (0.5 mg/kg intraperitoneal once a week, 2 weeks (n = 8)), the BhatiaDS score result was “II (grade II: above-mentioned area ratio≥50%, easy for blunt dissection)”. Besides, the BhatiaDS score entry with humanized Pear1 mice [4] (0.5 mg/kg intraperitoneal once a week, 4 weeks (n = 8)) is reported as “I (grade I: adhesive area of the area treated in the caecums of vermiform/total area of the treated area<50%, easy for blunt separation)”. Moreover, in the assay on humanized Pear1 mice [4] (1.0 mg/kg intraperitoneal once a week, 2 weeks (n = 8)), the BhatiaDS score result is recorded as “III”. Moreover, in the assay with humanized Pear1 mice [4] (1.0 mg/kg intraperitoneal once a week, 4 weeks (n = 8)), the BhatiaDS score result is “II (grade II: above-mentioned area ratio≥50%, easy for blunt dissection)”. Besides, in the assay with humanized Pear1 mice [4] (versus control group, especially in the high-dose group (1.0 mg/kg)), the “BhatiaDS score compared with the control group” value is recorded as “significantly lower”. In the assay on humanized Pear1 mice [5], the “collagen deposition in the subcutaneous mucosa at wounded sites (Masson staining)” value is reported as “less collagen deposition”, the “dermal thickness at wounded sites (HE staining)” value was “smaller dermal thickness” and the “fibroblasts at wounded sites (HE staining)” value was “fewer fibroblasts”.
